Laboratory results published in patent US20260274991A1 (TRIVENI BIO, published 2026).

What was measured:
[1] = biological target: PRSS2 (R&D Systems), activated with enterokinase (human, UniProt P07478 24-247); experiment: cell-based or functional assay
[2] = biological target: human PRSS1 (R&D Systems), activated with enterokinase (human, UniProt P07477 24-247); experiment: cell-based or functional assay
[3] = biological target: T1, human trypsin 1 with serine to alanine mutation (including a His tag at C terminus) (human, UniProt P07477 24-247); experiment: SPR (Biacore), antibody captured on Protein A chip, single-cycle kinetics, 25 C
T1 construct: also called Trypsin 1 S to A
Method: (§1) Antibody binding kinetic experiments via Biacore were performed to screen for anti-trypsin 1/trypsin 2 antibodies having high affinity to the respective targets. All screening assays were performed at 25 C. The running buffer used was 20 mM HEPES, 300 mM NaCl, 1 mM CaCl₂, 0.01% Tween-20, pH 7.5. Antibodies (1 ug/mL) were captured on Fc2-4 of a Series S ProteinA Sensor Chip (Cytiva) flowing at 10 uL/min for 30 s. Kinetics measurements were made in single-cycle kinetics mode with a series of 4-5 concentrations with top concentration of 10-200 nM and serial dilution 4-fold. Contact time was typically 180-300 s and dissociation time ranged from 300-3600 s. Flow rate of 30 uL/min was typically used. The sensor chip was regenerated with 10 mM glycine, pH 1.5 with a contact time of 30 s flowing at 50 uL/min.

[4] = biological target: T2, human trypsin 2 with serine to alanine mutation (including a His tag at C terminus) (human, UniProt P07478 25-247, limits assumed); experiment: as above
T2 construct: also called Trypsin 2 S to A
T2 sequence (P07478 other isoform, or with tags, fused parts or gaps limits assumed): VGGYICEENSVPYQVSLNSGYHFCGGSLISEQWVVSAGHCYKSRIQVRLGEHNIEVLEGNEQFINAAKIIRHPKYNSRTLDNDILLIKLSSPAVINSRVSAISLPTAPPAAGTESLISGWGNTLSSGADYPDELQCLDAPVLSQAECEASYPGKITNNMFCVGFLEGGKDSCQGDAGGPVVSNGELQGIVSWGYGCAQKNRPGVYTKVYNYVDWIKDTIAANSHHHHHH
Method: as §1

[5] = biological target: Native Trypsin (abcam); experiment: cell-based or functional assay

PRSS2 (R&D Systems), activated with enterokinase, sequence (P07478 24-247 limits assumed): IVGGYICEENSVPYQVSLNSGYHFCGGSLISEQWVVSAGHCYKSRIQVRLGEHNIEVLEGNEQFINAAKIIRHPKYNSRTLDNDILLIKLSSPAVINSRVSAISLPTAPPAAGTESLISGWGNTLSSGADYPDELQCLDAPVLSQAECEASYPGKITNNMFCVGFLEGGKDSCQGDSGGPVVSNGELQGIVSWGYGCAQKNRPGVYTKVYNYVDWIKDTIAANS

Binder | IC50 Against 1 nM hTryp-2 [1] [nM] | IC50 Against 1 nM hTryp-1 [2] [nM] | Kd [3] [nM] | Kd [4] [nM] | IC50 Against 0.25 nM Native Trypsin [5] [nM]
Trypsin 1/Trypsin 2-Dual-L3-Ab1 (antibody, V domains shown) VH: not shown VL: EIVMTQSPATLSVSPGERATLSCRASQSVGSNLAWYQQKPGQAPRLLIYGASTRATGIPARFSGSGSGTEFTLTISSLQSEDFAVYYCQQFHNWPPLTFGGGTKVEIK | 16 | 5 | 0.0177 | 0.159 | 
Trypsin 1/Trypsin 2-Dual-L5-Ab1 (antibody, V domains shown) VH: not shown VL: EIVMTQSPATLSVSPGERATLSCRASQSVGSNLAWYQQKPGQAPRLLIYGASTRATGIPARFSGSGSGTEFTLTISSLQSEDFAVYYCQQFHNWPPLTFGGGTKVEIK | 23 | 45 | 0.151 | 0.227 | 
Trypsin 1/Trypsin 2-Dual-L3-Ab2 (antibody, V domains shown) VH: QVQLVQSGAEVKKPGASVKVSCKASGYTFTDHYMHWVRQAPGQGLEWMGAINPSSGGTAYAQKFQGRVTMTRDTSISTAYMELSRLRSDDTAVYYCARVGGAARVGKAYTASAFDIWGQGTMVTVSS VL: EIVMTQSPATLSVSPGERATLSCRASQSVGSNLAWYQQKPGQAPRLLIYGASTRATGIPARFSGSGSGTEFTLTISSLQSEDFAVYYCQQFHNWPPLTFGGGTKVEIK | 4.29 | 2.75 | 0.00562 | 0.0292 | 5.95
Trypsin 1/Trypsin 2-Dual-L5-Ab2 (antibody, V domains shown) VH: QVQLVQSGAEVKKPGASVKVSCKASGYTFEGHYMHWVRQAPGQGLEWMGAINPYSGQTNYAQKFQGRVTMTRDTSISTAYMELSRLRSDDTAVYYCARDFVLLLRQSRILHESAFDIWGQGTTVTVSS VL: EIVMTQSPATLSVSPGERATLSCRASQSVGSNLAWYQQKPGQAPRLLIYGASTRATGIPARFSGSGSGTEFTLTISSLQSEDFAVYYCQQFHNWPPLTFGGGTKVEIK | 6.09 | 5.87 | < 0.01 | 0.00648 | 9.82
Trypsin 1/Trypsin 2-Dual-L2-Ab4 (antibody, V domains shown) VH: QVQLQESGPGLVKPSETLSLTCTVSGGSISSHYWHWIRQPAGKGLEWIGRIHTSGSTFYNPSLKSRVTMSVDTSKNQFSLKLSSVTAADTAVYYCARDLTNYGWSKSIRFYGMDVWGQGTTVTVSS VL: DIQMTQSPSSLSASVGDRVTITCQASQDISNYLNWYQQKPGKAPKLLIYDASNLETGVPSRFSGSGSGTDFTFTISSLQPEDIATYYCQQTDNFITFGGGTKVEIK | 5.6 | 3.71 | < 0.01 | 0.00904 | 4.97
Trypsin 1/Trypsin 2-Dual-L2-Ab3 (antibody, V domains shown) VH: QVQLQESGPGLVKPSETLSLTCTVSGGSISSHYWHWIRQPAGKGLEWIGRIATSGSTYYNPSLKSRVTMSVDTSKNQFSLKLSSVTAADTAVYYCARDLTNYGITKSIRFYGMDVWGQGTTVTVSS VL: DIQMTQSPSSLSASVGDRVTITCQASQDISNYLNWYQQKPGKAPKLLIYDASNLETGVPSRFSGSGSGTDFTFTISSLQPEDIATYYCQQVDNFITFGGGTKVEIK | 2.44 | 2.3 | 0.0118 | 0.0219 | 4.63
Trypsin 1/Trypsin 2-Dual-L2-Ab1 (antibody, V domains shown) VH: QVQLQESGPGLVKPSETLSLTCTVSGGSISSYYWSWIRQPAGKGLEWIGRIYTSGSTNYNPSLKSRVTMSVDTSKNQFSLKLSSVTAADTAVYYCARDLTNYGSGKSIRFYGMDVWGQGTTVTVSS VL: DIQMTQSPSSLSASVGDRVTITCQASQDISNYLNWYQQKPGKAPKLLIYDASNLETGVPSRFSGSGSGTDFTFTISSLQPEDIATYYCQQDDNFITFGGGTKVEIK | 79 | 46 | 2.61 | 2.2 | 
Trypsin 1/Trypsin 2-Dual-L2-Ab2 (antibody, V domains shown) VH: QVQLQESGPGLVKPSETLSLTCTVSGGSISSNYWHWIRQPAGKGLEWIGRIHTSGSTFYNPSLKSRVTMSVDTSKNQFSLKLSSVTAADTAVYYCARDITNYGSGKSIRFYPMDVWGQGTTVTVSS VL: DIQMTQSPSSLSASVGDRVTITCQASQDISNYLNWYQQKPGKAPKLLIYDASNLETGVPSRFSGSGSGTDFTFTISSLQPEDIATYYCQQDDTFITFGGGTKVEIK | 3.3 | 2.67 | 0.000891 | 0.00988 | 5.51
Trypsin 1/Trypsin 2-Dual-L1-Ab1 (antibody, V domains shown) VH: EVQLLESGGGLVQPGGSLRLSCAASGFTFSSYAMSWVRQAPGKGLEWVSAISASGGSTYYADSVKGRFTISRDNSKNTLYLQMNSLRAEDTAVYYCARGSPIGYSYARVSYYYYMDVWGKGTTVTVSS VL: DIQMTQSPSSVSASVGDRVTITCRASQGISRWLAWYQQKPGKAPKLLIYAASSLQSGVPSRFSGSGSGTDFTLTISSLQPEDFATYYCQQGNSFPLTFGGGTKVEIK | 79 | 63 | 2.54 | 0.763 | 
Trypsin 1/Trypsin 2-Dual-L4-Ab5 (antibody, V domains shown) VH: QVQLVQSGAEVKKPGASVKVSCKASGYTFTDYAISWVRQAPGQGLEWMGWISASTADTNYAQKLQGRVTMTTDTSTSTAYMELRSLRSDDTAVYYCARQDEVVGKMTYYIGTDVWGQGTTVTVSS VL: DIQMTQSPSSVSASVGDRVTITCRASQGISRWLAWYQQKPGKAPKLLIYAASSLQSGVPSRFSGSGSGTDFTLTISSLQPEDFATYYCQQANSFPITFGGGTKVEIK | 2.7 | 2.4 | 0.00465 | 0.0274 | 
Trypsin 1/Trypsin 2-Dual-L4-Ab2 (antibody, V domains shown) VH: QVQLVQSGAEVKKPGASVKVSCKASGYTFTDYAISWVRQAPGQGLEWMGWISASTADTNYAQKLQGRVTMTTDTSTSTAYMELRSLRSDDTAVYYCARGDEVVGKMTYYYGMDVWGQGTTVTVSS VL: DIQMTQSPSSVSASVGDRVTITCRASQGISRWLAWYQQKPGKAPKLLIYAASSLQSGVPSRFSGSGSGTDFTLTISSLQPEDFATYYCQQANSFPITFGGGTKVEIK | 2.03 | 2.07 | < 0.01 | 0.0372 | 5.51
Trypsin 1/Trypsin 2-Dual-L4-Ab3 (antibody, V domains shown) VH: QVQLVQSGAEVKKPGASVKVSCKASGYTFTDYAISWVRQAPGQGLEWMGWISASTADTNYAQKLQGRVTMTTDTSTSTAYMELRSLRSDDTAVYYCARGDEVVGKRTYYIGMDVWGQGTTVTVSS VL: DIQMTQSPSSVSASVGDRVTITCRASQGISRWLAWYQQKPGKAPKLLIYAASSLQSGVPSRFSGSGSGTDFTLTISSLQPEDFATYYCQQANSFPITFGGGTKVEIK | 2.01 | 2.31 | 0.00841 | 0.0451 | 4.43
Trypsin 1/Trypsin 2-Dual-L4-Ab4 (antibody, V domains shown) VH: QVQLVQSGAEVKKPGASVKVSCKASGYTFTDYAISWVRQAPGQGLEWMGWISASTADTNYAQKLQGRVTMTTDTSTSTAYMELRSLRSDDTAVYYCARGTEVVGKMTVYLGMDVWGQGTTVTVSS VL: DIQMTQSPSSVSASVGDRVTITCRASQGISRWLAWYQQKPGKAPKLLIYAASSLQSGVPSRFSGSGSGTDFTLTISSLQPEDFATYYCQQANSFPITFGGGTKVEIK | 2.01 | 2.05 | < 0.01 | 0.0206 | 5.48
Trypsin 1/Trypsin 2-Dual-L4-Ab1 (antibody, V domains shown) VH: QVQLVQSGAEVKKPGASVKVSCKASGYTFTSYGISWVRQAPGQGLEWMGWISAYSGDTNYAQKLQGRVTMTTDTSTSTAYMELRSLRSDDTAVYYCARGDEVVGKMTYYYGMDVWGQGTTVTVSS VL: DIQMTQSPSSVSASVGDRVTITCRASQGISRWLAWYQQKPGKAPKLLIYAASSLQSGVPSRFSGSGSGTDFTLTISSLQPEDFATYYCQQANSFPITFGGGTKVEIK | 14 | 1.8 | 0.0809 | 0.547 | 
Trypsin 1/Trypsin 2-Dual-L1-Ab2 (antibody, V domains shown) VH: EVQLLESGGGLVQPGGSLRLSCAASGFTFGDYAMWWVRQAPGKGLEWVSAISASGDVTYYADSVKGRFTISRDNSKNTLYLQMNSLRAEDTAVYYCARGSLIGYSYARVSYYYYSDVWGKGTTVTVSS VL: DIQMTQSPSSVSASVGDRVTITCRASQGISRWLAWYQQKPGKAPKLLIYAASSLQSGVPSRFSGSGSGTDFTLTISSLQPEDFATYYCQQGWSFPLTFGGGTKVEIK | 5.33 | 3.7 | < 0.01 | < 0.01 | 7.98
